Results: publication PMC11667672

Tests used:
His41 [1] = target: T1, His41 (UniProt position 3304, VYCPRHVICTS); test: kinetics; settings: 150 mM NaCl in constant-ionic-strength mixed buffers
Cys145 [2] = target: T2, Cys145 (UniProt position 3408, FLNGSCGSVGF); test: kinetics; settings: 150 mM NaCl in constant-ionic-strength mixed buffers
His41 [3] = target: T1, His41; test: chemical modification; settings: preincubation with DEPC on ice for 10-60 s; residual activity assay temperature per Table 1 footnote 25 °C; 150 mM NaCl in constant-ionic-strength mixed buffers; free enzyme (apo), 2 µM
Cys145 [4] = target: T2, Cys145; test: chemical modification; settings: preincubation with IAM on ice; residual activity assayed at 25 °C (Table 1 footnote says 25 °C); 150 mM NaCl in constant-ionic-strength mixed buffers; free enzyme (apo), 2 µM
Cys145 [5] = target: Cys145 (UniProt position 3385, FLNGSCGSVGF); test: chemical modification; settings: cited from earlier work
[6] = 25 °C (Table 1 footnote), apo (free) enzyme
[7] = 25 °C, free enzyme (kcat/Ka reports on free enzyme and free substrate)
[8] = 25 °C, free enzyme binding the inhibitor

| Substance | pKa (His41 [1]; [6]) | pKa (His41 [1]; [7]) | pKa (His41 [1]; [8]) | pKa (His41 [1]; 25 °C, free enzyme in D2O) | pKa (Cys145 [2]; [6]) | pKa (Cys145 [2]; [7]) | pKa (Cys145 [2]; [8]) | pKa (Cys145 [2]; 25 °C, free enzyme in D2O) | pKa (His41 [3]) | pKa (Cys145 [4]) | pKa (Cys145 [5]) |
| --- | --- | --- | --- | --- | --- | --- | --- | --- | --- | --- | --- |
| 3-chymotrypsin-like protease (3CL-PR; Main protease, Mpro, nsp5) (Severe acute respiratory syndrome coronavirus 2 (SARS-CoV-2)) | 6.2 ± 0.3 | 5.9 ± 0.1 | 6.5 ± 0.2 | 6.10 ± 0.07 | 8.2 ± 0.4 | 8.39 ± 0.07 | 8.5 ± 0.1 | 9.06 ± 0.06 | 6.05 ± 0.07 | 7.8 ± 0.1 | – |
| 3-chymotrypsin-like protease (3CLpro, Main protease, nsp5) (Severe acute respiratory syndrome coronavirus (SARS-CoV)) | – | – | – | – | – | – | – | – | – | – | 7.8 ± 0.1 |
